According to paper PMC3759449:

Legend:
[1] = target: NrCAM, rat (pcDNA3 plasmid) (rat) (UniProt P97686)
[2] = target: NrCAM, rat, tyrosine-phosphorylated in the FIGQY motif by co-expressed EphB2 (rat) (UniProt P97686)

- percent of cells with ankyrinG-EGFP recruited to the plasma membrane, HEK293 cells co-expressing ankyrin/NrCAM/EphB2 KD (kinase dead mutant K662R) [1]: 84%
- percent of cells with ankyrinG-EGFP recruited to the plasma membrane, HEK293 cells co-expressing ankyrin/NrCAM/EphB2 [2]: 7%
Substance: ankyrinG-EGFP fusion protein (from UniProt O70511 1-2622) (natural protein)
